From PMC12591191 (2025)
Where no end group is shown, it is not given here. The star is where a group is joined. Biotin = O=C1N[C@H]2[C@H](CS[C@H]2CCCCC(=O)*)N1; Myristoyl = CCCCCCCCCCCCCC(=O)*

Experiments:
SIRT6 H133Y [1] = target: T1, SIRT6 H133Y (human, UniProt Q8N6T7 1-355, H133Y); assay: BLI; Mg2+
SIRT6 R65A [2] = target: T2, SIRT6 R65A (human, UniProt Q8N6T7 1-355, R65A); assay: BLI; Mg2+
SIRT6 S56Y [3] = target: T3, SIRT6 S56Y (human, UniProt Q8N6T7 1-355, S56Y); assay: BLI; Mg2+
SIRT6 H133Y [4] = target: T1, SIRT6 H133Y; assay: BLI
SIRT6 R65A [5] = target: T2, SIRT6 R65A; assay: BLI
SIRT6 S56Y [6] = target: T3, SIRT6 S56Y; assay: BLI
SIRT6 G60A = SIRT6 G60A (Homo sapiens); assay: BLI
Chain of SIRT6 G60A (Homo sapiens) (chain, as listed by the source G60A): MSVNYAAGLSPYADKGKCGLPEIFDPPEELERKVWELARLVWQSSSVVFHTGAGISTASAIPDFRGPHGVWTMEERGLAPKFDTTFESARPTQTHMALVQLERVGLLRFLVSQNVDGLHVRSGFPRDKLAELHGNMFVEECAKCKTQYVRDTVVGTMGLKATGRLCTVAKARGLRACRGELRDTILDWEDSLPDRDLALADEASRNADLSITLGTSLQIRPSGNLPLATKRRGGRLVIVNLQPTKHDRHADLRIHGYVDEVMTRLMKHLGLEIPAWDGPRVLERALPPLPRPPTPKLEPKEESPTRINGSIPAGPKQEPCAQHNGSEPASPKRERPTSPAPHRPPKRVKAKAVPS

T2 sequence (Q8N6T7 whole entry R65A): as the sequence (chain, as listed by the source G60A) above, with A60G, R65A counted along it
T3 sequence (Q8N6T7 whole entry S56Y): as the sequence (chain, as listed by the source G60A) above, with S56Y, A60G counted along it
T1 sequence (Q8N6T7 whole entry H133Y): as the sequence (chain, as listed by the source G60A) above, with A60G, H133Y counted along it

Binder: Biotin-KQTARK(Myristoyl)STGGKARRRRR [B-H3K9^Myr-5R (biotin-KQTARK^MyrSTGGKARRRRR)]
- Kd (SIRT6 H133Y [1]): 680 nM
- Kd (SIRT6 R65A [2]): 1800 nM
- Kd (SIRT6 S56Y [3]): 610 nM
- Kd (SIRT6 H133Y [4]): 3200 nM
- Kd (SIRT6 R65A [5]): 2000 nM
- Kd (SIRT6 S56Y [6]): 1600 nM
- Kd (SIRT6 G60A): 1300 nM
